Experimental data from PMC12384205.

Target: RGD-binding integrins on HeLa cells (α5β1, αvβ5, αvβ3) (human (endogenous in HeLa))
Assay: resonant waveguide grating (RWG) live-cell competitive adhesion assay; sensor coated with 50% PPR (RGD peptide); HeLa cells (8000 per well) with soluble S1 or BSA in HEPES-HBSS, 90 min; normalised adhesion fitted with a sigmoidal curve; Kd calculated from the IC50 with [RGD] 2.39 µM and Kd^RGD 9.4 µM

For “recombinant human coronavirus SARS-CoV-2 Spike Glycoprotein S1 (Active)”, the IC50 was 1400 nM and the Kd was 1120 nM.
